Results on 4 molecules are retold here after patent US7244606B2, “Modified BACE” (Elan Pharmaceuticals, Inc., priority 2002, dated 2007).

“And” between values parts separate entries of the source, which are not always exact repeats. Equal entries are not always repeated.

In assay [1] the test system is substrate S-1 (SEQ ID NO: 10). Nature of the assay: BACE activity assay: cleavage of substrate S-1, HPLC tryptophan fluorescence peak area. In kind it is biochemical. The settings on record: for Activity Assays (Fluorescence Peak Area): 50 μl BACE sample containing 5–10 pmoles protein, 5 μl 1 mM substrate S-1, NaOAc pH 5.0, 1–2 hours at 37° C. As for the experimental part: The activity of P33K-BACE expressed in E. coli according the above Examples was compared to the activity of human BACE prepared as above without the P33K mutation, and to human BACE expressed in CHO cells.
To assay for BACE activity, the following activity assay conditions were utilized, unless specifically indicated otherwise: 20 μl 1 M sodium acetate (NaOAc), pH 5.0; 125 μl H2O; 50 μl BACE sample containing 5–10 pmoles protein; and 5 μl 1 mM substrate S-1 (SEQ ID NO: 10).
The 200 μl assay reaction was incubated for 1–2 hours at 37° C. Activity was expressed as fluorescence peak area generated by the liberation of a fluorescent (Tryptophan fluorescence) product upon cleavage of Substrate S-1 by recombinant BACE. The reaction was stopped with 100 μl of 4% TFA in H2O. In order to separate the cleavage products and thereby detect activity of recombinant BACE, 50 microliters of the reaction mixture was injected into a Hewlett Packard Model 1100 HPLC equipped with an Alltech Rocket™ column (7 mm i.d., ×53 mm length, C18, 3 μm) pre-equilibrated with 88% Reagent A (0.1% TFA in water), 12% Reagent B (0.1% TFA in acetonitrile). The flow rate over this column was 3 ml per minute.

The next assay has as its system polypeptide substrate. The settings on record: assayed with a polypeptide substrate; cited from earlier work.

B1: E. Coli BACE: human BACE prepared as above in E. coli without the P33K mutation (protein)
chain: MASMTGGQQMGRGSMAGVLPAHGTQHGIRLPLRSGLGGAPLGLRLPRETDEEPEEPGRRGSFVEMVDNLRGKSGQGYYVEMTVGSPPQTLNILVDTGSSNFAVGAAPHPFLHRYYQRQLSSTYRDLRKGVYVPYTQGKWEGELGTDLVSIPHGPNVTVRANIAAITESDKFFINGSNWEGILGLAYAEIARPDDSLEPFFDSLVKQTHVPNLFSLQLCGAGFPLNQSEVLASVGGSMIIGGIDHSLYTGSLWYTPIRREWYYEVIIVRVEINGQDLKMDCKEYNYDKSIVDSGTTNLRLPKKVFEAAVKSIKAASSTEKFPDGFWLGEQLVCWQAGTTPWNIFPVISLYLMGEVTNQSFRITILPQQYLRPVEDVATSQDDCYKFAISQSSTGTVMGAVIMEGFYVVFDRARKRIGFAVSACHVHDEFRTAAVEGPFVTLDMEDCGYNIPQTDES
For the molecule B1, in assay [1], the “Activity Assays (Fluorescence Peak Area)” value is 31.03 and 45.80 and 31.86.

B2: E. Coli P33K-BACE: recombinant human BACE with proline to lysine mutation at position 33, terminated at S432, expressed in E. coli and refolded (protein, listed as Homo sapiens)
chain: TQHGIRLPLRSGLGGAPLGLRLPRETDEEPEEKGRRGSFVEMVDNLRGKSGQGYYVEMTVGSPPQTLNILVDTGSSNFAVGAAPHPFLHRYYQRQLSSTYRDLRKGVYVPYTQGKWEGELGTDLVSIPHGPNVTVRANIAAITESDKFFINGSNWEGILGLAYAEIARPDDSLEPFFDSLVKQTHVPNLFSLQLCGAGFPLNQSEVLASVGGSMIIGGIDHSLYTGSLWYTPIRREWYYEVIIVRVEINGQDLKMDCKEYNYDKSIVDSGTTNLRLPKKVFEAAVKSIKAASSTEKFPDGFWLGEQLVCWQAGTTPWNIFPVISLYLMGEVTNQSFRITILPQQYLRPVEDVATSQDDCYKFAISQSSTGTVMGAVIMEGFYVVFDRARKRIGFAVSACHVHDEFRTAAVEGPFVTLDMEDCGYNIPQTDES
modifications: Amino acid sequence of human BACE with P33K mutation.
As for B2, in assay [1], the “Activity Assays (Fluorescence Peak Area)” value is 38.41 and 26.50 and 32.84. Further, the “activity compared with BACE” value in assay [1] (result in words) is “essentially the same activity of BACE”.

B3: β-secretase with the pro-segment intact: β-secretase with the pro-segment intact, from Shi et al., 2001 (protein, UniProt P56817 22-501, looked up)
pro-form: TQHGIRLPLRSGLGGAPLGLRLPRETDEEPEEPGRRGSFVEMVDNLRGKSGQGYYVEMTVGSPPQTLNILVDTGSSNFAVGAAPHPFLHRYYQRQLSSTYRDLRKGVYVPYTQGKWEGELGTDLVSIPHGPNVTVRANIAAITESDKFFINGSNWEGILGLAYAEIARPDDSLEPFFDSLVKQTHVPNLFSLQLCGAGFPLNQSEVLASVGGSMIIGGIDHSLYTGSLWYTPIRREWYYEVIIVRVEINGQDLKMDCKEYNYDKSIVDSGTTNLRLPKKVFEAAVKSIKAASSTEKFPDGFWLGEQLVCWQAGTTPWNIFPVISLYLMGEVTNQSFRITILPQQYLRPVEDVATSQDDCYKFAISQSSTGTVMGAVIMEGFYVVFDRARKRIGFAVSACHVHDEFRTAAVEGPFVTLDMEDCGYNIPQTDESTLMTIAYVMAAICALFMLPLCLMVCQWRCLRCLRQQHDDFADDISLLK
modifications: pro-form
Regarding B3, the “k(cat)/K(m), fold less than β-secretase” value in the assay on polypeptide substrate is on record as 2.3 fold.

B4: CHO BACE: human BACE construct Asp2-2L-TM-His6 expressed in CHO cells; 50:50 mixture of two isoforms (control) (protein)
chain: TQHGIRLPLRSGLGGAPLGLRLPRETDEEPEEPGRRGSFVEMVDNLRGKSGQGYYVEMTVGSPPQTLNILVDTGSSNFAVGAAPHPFLHRYYQRQLSSTYRDLRKGVYVPYTQGKWEGELGTDLVSIPHGPNVTVRANIAAITESDKFFINGSNWEGILGLAYAEIARPDDSLEPFFDSLVKQTHVPNLFSLQLCGAGFPLNQSEVLASVGGSMIIGGIDHSLYTGSLWYTPIRREWYYEVIIVRVEINGQDLKMDCKEYNYDKSIVDSGTTNLRLPKKVFEAAVKSIKAASSTEKFPDGFWLGEQLVCWQAGTTPWNIFPVISLYLMGEVTNQSFRITILPQQYLRPVEDVATSQDDCYKFAISQSSTGTVMGAVIMEGFYVVFDRARKRIGFAVSACHVHDEFRTAAVEGPFVTLDMEDCGYNIPQTDESHHHHHH
Regarding B4, the “Activity Assays (Fluorescence Peak Area)” value in assay [1] was 83.32 and 85.20 and 78.07.
